From patent US20180028658A1 (NEW YORK BLOOD CENTER, published 2018) come the findings set out here.

In general, Kd refers to the equilibrium constant for the complex coming apart. One may read the EC50 (read off the curve) as the concentration needed to bring the measured effect to its halfway point. In general, EC50 refers to the concentration needed to bring the measured effect to its halfway point. One may read the koff as the first-order rate constant of dissociation. A high value points to a short-lived complex. For orientation: kon means a measure of how fast the partners come together. High values mean fast association, low ones slow association.

For experiment [1], the target named is T1, HIV-1 Env expressed on the surface of ACH-2 cells reactivated with TNF-α (HIV-1). The experiment can be described thus: cell-based or functional assay.
Experiment [2] deals with T2, BG505 SOSIP.664 gp140 trimer (HIV-1 BG505).
T2 construct: domain: gp140; Provided by Dr. John P Moore; When cleaved, each protomer is a gp120 chain plus a gp41 ectodomain chain; also called BG505 SOSIP.646; cleavable version gp140 trimer
In words: method not given.

Experiment [3] has as its target HIV-1 gp41 (strain not stated) (HIV-1). In words: method not given.
Experiment [4] has as its target T3, full-length gp120 monomer (HIV-1 (Yu2 by the materials, not named …, UniProt P35961 32-498)).
T3 construct: domain: gp120; The tie to strain Yu2 is inferred from 'full-length Yu2 gp120 protein' in the materials. gp120IIIB and gp120BaL were also bought; General statements about 'gp120' are entered under this molecule; also called HIV-1 gp120 monomer; monomeric full-length gp120
In words: SPR (BIAcore); lower end of the stated KD range.

Experiment [5] has as its target T2, BG505 SOSIP.664 gp140 trimer. The experiment can be described thus: ELISA on coated BG505 SOSIP.664 gp140 trimer, OD at 405 nm, 1x PBS as blank. On the technique in general: In an ELISA, binding on a coated surface is turned into a signal by an enzyme label.
The target of a further experiment is T4, SF162 gp140 trimer (HIV-1 SF162, UniProt P19550 32-675).
T4 construct: domain: gp140; Obtained from the NIH AIDS Reagent Program; also called non-cleavable version of gp140 trimer (SF162); uncleaved SF162 gp140 trimer
In words: ELISA on coated SF162 gp140 trimer, OD at 405 nm, 1x PBS as blank.

In experiment [6] the target is T2, BG505 SOSIP.664 gp140 trimer. In words: SPR (BIAcore). In general terms: SPR reads the build-up and loss of mass on a sensor chip optically.
The target of experiment [7] is T1, HIV-1 Env expressed on the surface of …. The experiment can be described thus: flow cytometry titration on activated ACH-2 cells, from 20 µg/ml in 1:3 dilutions, FITC second antibody. On the technique in general: Flow cytometry measures light scatter and fluorescence of single cells or particles in a stream.
Experiment [8] concerns the target T3, full-length gp120 monomer. In words: ELISA on coated full-length gp120 monomer, OD at 405 nm, 1x PBS as blank.
In experiment [9] the target is T5, Recombinant gp41HXB2 (ecto-domain aa546 to 682) (HIV-1 HXB2, UniProt P04578 546-682).
T5 construct: range 546-682; Bought from Aviva System Biology Corp; also called gp41 from HIV-1 HXB2 ecto-domain
The experiment can be described thus: ELISA on coated gp41HXB2, OD at 405 nm.

In experiment [10] the target is T2, BG505 SOSIP.664 gp140 trimer. The experiment can be described thus: SPR (BIAcore), Env protein immobilized on CM5 chip, antibody as analyte.
The target in experiment [11] is HIV-1 gp41 (strain not stated) (HIV-1). Described as above.
Experiment [12] deals with T3, full-length gp120 monomer. Described as above.

B1: vc-MMAE-NIH45-46 G54W (NYBC-HC-001) (antibody, V domains shown)
VH: QVRLSQSGGQMKKPGESMRLSCRASGYEFLNCPINWIRLAPGRRPEWMGWLKPRWGAVNYARKFQGRVTMTRDVYSDTAFLELRSLTSDDTAVYFCTRGKYCTARDYYNWDFEHWGRGAPVTVSS
VL: EIVLTQSPATLSLSPGETAIISCRTSQSGSLAWYQQRPGQAPRLVIYSGSTRAAGIPDRFSGSRWGADYNLSISNLESGDFGVYYCQQYEFFGQGTKVQVDI
modifications: MC-vc-PAB-MMAE linker payload on cysteines reduced with TCEP (sites and number not stated)
For B1, the “EC50 of cell killing, […]-BLUE cell viability assay on activated ACH-2 latent cells” value in [1] came to 0.85 µg/mL.

B2: NIH45-46 G54W (antibody, V domains shown)
VH: QVRLSQSGGQMKKPGESMRLSCRASGYEFLNCPINWIRLAPGRRPEWMGWLKPRWGAVNYARKFQGRVTMTRDVYSDTAFLELRSLTSDDTAVYFCTRGKYCTARDYYNWDFEHWGRGAPVTVSS
VL: EIVLTQSPATLSLSPGETAIISCRTSQSGSLAWYQQRPGQAPRLVIYSGSTRAAGIPDRFSGSRWGADYNLSISNLESGDFGVYYCQQYEFFGQGTKVQVDI
notes: Human IgG1; Obtained from the NIH AIDS Reagent Program and also made recombinantly (VH and VK genes in human b12 Igγ and Igκ backbone vectors, 293T cells); FITC-labelled in the uptake experiments; also called NIH45-45 G54W
As for B2, the Kd in experiment [2] is approximately 100 pM; in experiment [3], approximately 1000 pM; in [4] it was 110 to 170 pM; in experiment [6] it was 230 to 290 pM; in [10] it was 267 pM; in [11], 6750 pM. This molecule registered a Kd in experiment [12] of 110 pM. Further, the “EC50 (read off the curve)” value in experiment [5] was approximately 0.01 µg/mL; in the experiment with SF162 gp140 trimer it was approximately 0.2 µg/mL; in experiment [8], approximately 0.5 µg/mL. For the same molecule, it took 5.2 µg/mL to reach a half-maximal effect in experiment [7] (EC50). The binding result in experiment [9] is listed as “binds”. For the same molecule, the koff in experiment [10] is 5.37e-06 s⁻¹; in experiment [11], 0.00461 s⁻¹; in experiment [12] it was 4.94e-06 s⁻¹. Moreover, the kon in [10] was found to be 20100 M⁻¹ s⁻¹; in experiment [11] it was 683000 M⁻¹ s⁻¹.
